This note sets out measurements from patent publication US20240116985A1 (published 2024).

Sequences and labels used below:
T1: full-length beta-Catenin (Uniprot ID P35222) (Homo sapiens (Human), UniProt P35222 2-781)
T1 construct: the AlphaScreen assay uses a Histidine (Nickel Chelate) detection kit, so a His tag is likely there; also called B-Catenin; bCat
T1 sequence: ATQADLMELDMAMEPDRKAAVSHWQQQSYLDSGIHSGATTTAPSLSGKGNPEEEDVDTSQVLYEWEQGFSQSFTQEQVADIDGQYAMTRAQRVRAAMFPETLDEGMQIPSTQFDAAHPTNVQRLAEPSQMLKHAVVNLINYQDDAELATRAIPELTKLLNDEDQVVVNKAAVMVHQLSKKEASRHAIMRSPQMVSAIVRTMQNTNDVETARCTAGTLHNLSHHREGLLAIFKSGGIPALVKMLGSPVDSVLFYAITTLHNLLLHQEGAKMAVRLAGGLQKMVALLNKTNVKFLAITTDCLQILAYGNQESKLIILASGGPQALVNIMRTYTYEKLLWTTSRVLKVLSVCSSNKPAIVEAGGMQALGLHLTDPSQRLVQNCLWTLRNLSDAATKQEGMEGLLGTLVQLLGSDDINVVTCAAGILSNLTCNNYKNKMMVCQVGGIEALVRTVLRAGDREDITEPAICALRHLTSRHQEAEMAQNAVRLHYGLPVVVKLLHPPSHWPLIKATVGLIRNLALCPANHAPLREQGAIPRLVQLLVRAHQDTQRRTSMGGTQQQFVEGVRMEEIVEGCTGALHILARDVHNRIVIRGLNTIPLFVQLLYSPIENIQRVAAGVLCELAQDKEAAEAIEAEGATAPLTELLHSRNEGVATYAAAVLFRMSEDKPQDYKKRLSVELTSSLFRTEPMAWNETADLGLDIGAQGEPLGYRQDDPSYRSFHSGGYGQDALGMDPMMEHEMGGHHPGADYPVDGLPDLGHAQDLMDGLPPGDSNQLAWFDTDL

B1: I-150 (peptide)
peptide: DIXDDAAFQXFWH
modifications: not fully specified; as printed: Ac-Asp-Ile-RdN-Asp-Asp-Ala-Ala-Phe-Gln-S7-Phe-Trp-His-NH2; N-terminal acetyl, C-terminal amide; RdN(3), S7(10); staple RdN-S7 by olefin metathesis
notes: stapled peptide
B2: I-161 (peptide)
peptide: Ac-FDA[R8]DDAAFV[PyrS]EWQ-NH2
modifications: staple 4-11; not fully specified; printed as Ac-Phe-Asp-Ala-R8-Asp-Asp-Ala-Ala-Phe-Val-PyrS-Glu-Trp-Gln-NH2
notes: stapled peptide
B3: I-163 (peptide)
peptide: Ac-FDA[R8]DDAAFS[PyrS″]FWQ-NH2
modifications: staple 4-11; not fully specified; printed as Ac-Phe-Asp-Ala-R8-Asp-Asp-Ala-Ala-Phe-Ser-PyrS-Phe-Trp-Gln-NH2
notes: stapled peptide
B4: I-162 (peptide)
peptide: Ac-FDA[R8]DDAAFV[PyrS″]EWQ-NH2
modifications: staple 4-11; not fully specified; printed as Ac-Phe-Asp-Ala-R8-Asp-Asp-Ala-Ala-Phe-Val-PyrS-Glu-Trp-Gln-NH2
notes: stapled peptide
B5: I-159 (peptide)
peptide: Ac-[Aib]DA[R8]DEAAFV[PyrS″]FW[Aib]-NH2
modifications: staple 4-11; not fully specified; printed as Ac-Aib-Asp-Ala-R8-Asp-Glu-Ala-Ala-Phe-Val-PyrS-Phe-Trp-Aib-NH2
notes: stapled peptide
B6: I-171 (peptide)
peptide: XDAXDEAAFVXFXQ
modifications: not fully specified; as printed: Ac-PL3-Asp-Ala-B5-Asp-Glu-Ala-Ala-Phe-Val-S8-Phe-5CpW-Gln-NH2; N-terminal acetyl, C-terminal amide; PL3(1), B5(4), S8(11), 5CpW(13); staples PL3-B5 and B5-S8 by olefin metathesis
notes: stapled peptide
B7: I-160 (peptide)
peptide: Ac-[Aib]DA[R8]DEAAFV[PyrS]FW[Aib]-NH2
modifications: staple 4-11; not fully specified; printed as Ac-Aib-Asp-Ala-R8-Asp-Glu-Ala-Ala-Phe-Val-PyrS-Phe-Trp-Aib-NH2
notes: stapled peptide

Starred links: 1 amine or outer side, 2 acyl side, 3 side chain; linkers in the order of their positions; H or OH if unused. Positions of bridges follow the written chain, without caps; N, C: chain ends. Non-standard residues stand in square brackets, D forms with d. Primed or numbered codes have the meaning given here. B5(16) = 2-amino-2-(pent-4-en-1-yl)hept-6-enoic acid = 2,2-bis(4-pentenyl)glycine (stitching residue), C=CCCCC(CCCC=C)(N[*:1])C(=O)[*:2]; PyrS(3) = (S)-1-((allyloxy)carbonyl)-3-aminopyrrolidine-3-carboxylic acid, stapling residue, C=CCOC(=O)N1CC[C@@](N[*:1])(C(=O)[*:2])C1; PyrS″ = (S)-1-((allyloxy)carbonyl)-3-aminopyrrolidine-3-carboxylic acid (stapling residue), C=CCOC(=O)N1CC[C@@](N[*:1])(C(=O)[*:2])C1; RdN = (R)-4-(((allyloxy)carbonyl)(methyl)amino)-2-amino-2-methylbutanoic acid, C=CCOC(=O)N(C)CC[C@@](C)(N[*:1])C(=O)[*:2]; PyrS = (S)-1-((allyloxy)carbonyl)-3-aminopyrrolidine-3-carboxylic acid, C=CCOC(=O)N1CC[C@@](N[*:1])(C(=O)[*:2])C1; Trp(5-cPr) = 5-cyclopropyl-L-tryptophan (5CpW), O=C([C@H](Cc1c[nH]c2ccc(C3CC3)cc12)N[*:1])[*:2]; B5 = 2-amino-2-(pent-4-en-1-yl)hept-6-enoic acid, C=CCCCC(CCCC=C)(N[*:1])C(=O)[*:2]; Trp(5-CF3) = N[C@@H](Cc1c[nH]c2ccc(C(F)(F)F)cc12)C(=O)O; H2Trp = 2,3-dihydrotryptophan (indolin-3-yl alanine); Trp(5-OMe) = COc1ccc2[nH]cc(C[C@H](N)C(=O)O)c2c1; S7 = C[C@@](CCCCCC=[*:3])(N[*:1])C(=O)[*:2]; αAllylPro = C=CC[C@@]1(C(=O)O)CCCN1; R8 = C=CCCCCCC[C@@](C)(N)C(=O)O; S8 = C=CCCCCCC[C@](C)(N)C(=O)O; Aib = CC(C)(N)C(=O)O

A word on the EC50: it is the midpoint of the concentration-response curve.

The target of this assay is T1, full-length beta-Catenin (Uniprot ID …). As to the kind of experiment: AlphaScreen competition; full-length beta-catenin with biotin-TCF4(10-53) probe as competitor. On the procedure:
Equal volume of the titrated peptide was added to the plate and incubated for 15 minutes at 20° C. Then 4 uL of donor and 4 uL acceptor beads at 10 ug/mL were added to the plate, for a 16 uL reaction pool and protected from light for 60 minutes at 20° C. prior to read. Reads were performed on a CLARIOstar plate reader (BMG Labtech) in duplicate, and data were fitted to a 1:1 binding model with hill slope using an in-house script. All provided concentrations are final concentrations.
For orientation: Alpha assays give light when donor and acceptor beads are brought close together.
For B1, the midpoint of the response, the EC50, lay at 1.94 µM.

Regarding B2, the EC50 was not below 10 µM.

With Ac-ADA[RdN]DEAAFQ[S7]FWH-NH2 (staple 4-11, stapled peptide composition) [I-156], the EC50 was determined as 4.18 µM.

Molecule Ac-[Aib]DA[R8]DEAAFV[PyrS(3)]FWQ-NH2 (staple 4-11; also: later-eluting staple isomer, stapled peptide) [I-158] yielded an EC50 of 2.17 µM.

Molecule Ac-[αAllylPro]DA[B5(16)]DEAAFV[S8]F[H2Trp]Q-NH2 (staple 1-4, 4-11, stapled peptide) [I-167] yielded an EC50 of 6.2 µM.

As for Ac-[αAllylPro]DA[B5(16)]DEAAFV[S8]F[Trp(5-OMe)]Q-NH2 (staple 1-4, 4-11, stapled peptide composition) [I-165], the EC50 was determined as 1.23 µM.

B3: the EC50 was 9.75 µM.

Ac-FDA[R8]DDAAFS[PyrS]FWQ-NH2 (staple 4-11, stapled peptide) [I-164] came in with an EC50 of 3.61 µM.

With Ac-[αAllylPro]DA[B5]DEAAFV[S8]F[Trp(5-cPr)]Q-NH2 (staple 1-4, 4-11, stapled peptide) [I-170], the EC50 was 4.67 µM. The EC50 values of the last two molecules are within 1.5-fold of each other.

As for B4, the EC50 was not below 10 µM.

The molecule Ac-[αAllylPro]DA[B5(16)]DEAAFV[S8]F[H2Trp]Q-NH2 (staple 1-4, 4-11, stapled peptide) [I-168] displayed a concentration for a half-maximal effect (EC50) of 5.64 µM.

Regarding Ac-[αAllylPro]DA[B5]DEAAFV[S8]F[Trp(5-CF3)]Q-NH2 (staple 1-4, 4-11, stapled peptide composition) [I-169], the EC50 stood at 9.21 µM.

The molecule Ac-DI[RdN]DDAAFQ[S7]FW-NH2 (staple 3-10, stapled peptide composition) [I-151] had a 50% effective concentration (EC50) of 5.5 µM.

B5 showed an EC50 of 5.35 µM.

For the molecule B6, it took 2.07 µM to reach a half-maximal effect (EC50).

In the case of B7, the EC50 amounted to 3.24 µM.
